From patent US20090232823A1 (Eli Lilly, published 2009)

B1: CTA99, chimeric antibody with a human constant region IgG1 (antibody, V domains shown)
VH: EVQLQQSGAELVRPGALVKLSCKTSGFNIKDYFLHWVRQRPDQGLEWIGWINPDNGNTVYDPKFQGTASLTADTSSNTVYLQLSGLTSEDTAVYFCTRRDYTYEKAALDYWGQGASVIVFS
VL: AIQMSQSPASLSASVGETVTITCRASGNIYNYLAWYQQKQGKSPHLLVYDAKTLADGVPSRFSGSGSGTQYSLKISSLQTEDSGNYYCQHFWSLPFTFGSGTKLEIKR

Assays:
[1] = target: recombinant human TYRP1 (tyrosinase-related protein-1) (human) (UniProt P17643); test: SPR (Biacore), TYRP1 immobilized; summary table
[2] = target: recombinant human TYRP1 (tyrosinase-related protein-1) (human) (UniProt P17643); test: ELISA, plate coated with recombinant human TYRP1, antibody titrated
[3] = target: recombinant human TYRP1 (tyrosinase-related protein-1) (human) (UniProt P17643); test: SPR (Biacore), TYRP1 immobilized on CM5 chip, antibody injected, 20-25 °C
[4] = target: recombinant human TYRP1 (tyrosinase-related protein-1) (human) (UniProt P17643); test: ELISA on plate-coated recombinant human TYRP1 (column headed 'Competition ELISA'); summary table
[5] = target: native human TYRP1 expressed on human melanoma cell lines (624mel, SKmel28, SKmel23) (human, UniProt P17643 25-537); test: cell-based or functional assay

Row | Molecule | Kd [1] [nM] | EC50 [2] [nM] | Kd [3] [nM] | koff [3] [s⁻¹] | kon [3] [M⁻¹ s⁻¹] | EC50 [4] [nM] | Human ADCC (%) [5] [%]
1 | TA99, murine monoclonal antibody (IgG2a) specific for human and murine TYRP1 | 1.7 | 0.4 | 1.7 | 0.00016 | 95000 | 0.4 | –
2 | B1 | – | – | – | – | – | – | 48
